{"source": "the nanobody polyreactivity screen of Harvey et al. (2022)", "data": [{"experiment": "yeast display, Sf9 membrane polyspecificity reagent, FACS + sequencing; frameworks hold sequencing errors", "how_it_was_run": "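A synthetic nanobody library was expressed on Saccharomyces cerevisiae BJ5465 by galactose induction for 36–48 hours. The library was stained for 1 hour at 4 °C with 10% biotinylated, detergent-solubilized Sf9 membrane reagent and enriched with streptavidin microbeads before FACS. Low and high (top ~1%) gates were set on anti-HA fluorescence for expression and streptavidin fluorescence for reagent binding, and each polyreactivity label reflects the gate of origin.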", "values": [{"sequence": "QVQLVESGGGLVQAGGSLRLSCAASGSIFYGYAMGWYRPAPGKERELVAAITSGGRTYYADSVKGRFTISRDNAKNTVYLQMNSLKPEDTAVYYCNKLNYWSVRYEYWGQGTQVTVSS", "polyreactivity (PSR sort gate)": "high polyreactivity"}, {"sequence": "QVQLVESGGGLVQAGGSLRLSCAASGSIFYGYAMGWYRQAAGNERELVAAITTGGSTYCADSVKGRFTISRDNAKNTVYLQMNSLKPEDTAVYYCAAKYYTGGSFEMYYWGQGNQVTVSS", "polyreactivity (PSR sort gate)": "high polyreactivity"}, {"sequence": "QVQLVESGGGLVQAGGSLRLSCAASGSIFYGYAMGWYRQAPGKEREFVASINSGVGSTYYADSVKGRFTISRDNAKNTVYLLMNSLKPEDTAVYYCNKVHRSFTYNDGQTPAYDYWGQRTQVTVSS", "polyreactivity (PSR sort gate)": "low polyreactivity"}, {"sequence": "QVQLVESGGGLVQAGGSLRLSCAASGSIFYGYAMGWYRQAPGKERELVAAISWTGGRTYYADSVKGRFTISRDNAKNTVYLQMNSLKPEDTAVYYCNVRRYSVVSGGYWGQGTQVTVSS", "polyreactivity (PSR sort gate)": "high polyreactivity"}, {"sequence": "QVQLVESGGGLVQAGGSLRLSCAASGSIFYGYAMGWYRQAPGKERELVAAISYSGDRTYYADSVKGRFTISRDNAKNTVYLQMNSLKPEDTAVYYCAARKHGGTVRGRRDYWGQGTQVTVSS", "polyreactivity (PSR sort gate)": "high polyreactivity"}, {"sequence": "QVQLVESGGGLVQAGGSLRLSCAASGSIFYGYAMGWYRQAPGKERELVAAITDVGSTNYADSVKGRFTISRDNAKNTVYLQMNSLKPEDTAVYYCAADNYRRSSVDPFTDTMGYWGQGTQVTVSS", "polyreactivity (PSR sort gate)": "low polyreactivity"}, {"sequence": "QVQLVESGGGLVQAGGSLRLSCAASGSIFYGYAMGWYRQAPGKERELVAVISRRGDSTYYADSVKGRFTISRDNAKNSVYLQMNSLKPEDTAVYYCASYGSLSKGFGYWGQGTQVTVSS", "polyreactivity (PSR sort gate)": "low polyreactivity"}, {"sequence": "QVQLVESGGGLVQAGGSLRLSCAASGSIFYGYTMGWYRQAPGKERELVAAITYRGGRTYYADSVKGRFTISRDNAKNTDYLQMNSLKPEDTAVYYCAARYDYFSSKYGYWGQGTQVTVSS", "polyreactivity (PSR sort gate)": "high polyreactivity"}, {"sequence": "QVQLVESGGGLVQAGGSLRLSCAASGSIFYHYAMGWYRQAPGKERELVAAISRSGGRTYYADSVKGRFTISRDNAKNTVYLQMNSLKPEDTAVYYCNKDYYYPNSWPKYDYWGQGTQVTVSS", "polyreactivity (PSR sort gate)": "low polyreactivity"}, {"sequence": "QVQLVESGGGLVQAGGSLRLSCAASGSIFYHYAMGWYRQAPGKERELVATINWSGGSTYYADSVKGRFTISRDNAKNTVYLQMNSLKPEDTAVYYCYSDSAIGLYVSSTPYGYDYWGQGTQVTVSS", "polyreactivity (PSR sort gate)": "low polyreactivity"}, {"sequence": "QVQLVESGGGLVQAGGSLRLSCAASGSIFYINAMVWYRPAPGTERELLAAITSGGTYYADSVKGRFTISRDNAKNTVYLQMNSLKPEDTAVDYCAADREGTPLFDYWGQGTQVTVSS", "polyreactivity (PSR sort gate)": "low polyreactivity"}, {"sequence": "QVQLVESGGGLVQAGGSLRLSCAASGSIFYKNAMGWYRQAPGKERELVAVISTSGSTYYADSVKGRFTISRDNAKNTVYLQMKSLKPEDTAVYYCATKVRRWYSARSPNVRFDYWGQGTQVTVSS", "polyreactivity (PSR sort gate)": "high polyreactivity"}, {"sequence": "QVQLVESGGGLVQAGGSLRLSCAASGSIFYKYAMGWYRQAPGKEREFVAAITGSGVRTYYADSVKGRFTISRDNAKNTVYLQMNRLKPDDTAVYYCAASSYGYDYWGQGTQVTVSS", "polyreactivity (PSR sort gate)": "high polyreactivity"}, {"sequence": "QVQLVESGGGLVQAGGSLRLSCAASGSIFYKYAMGWYRQAPGKERELVASITSGGITNYADSVKGRFTISRDNAKNTVFLQMNSLKPEDTAVYYCNAANPYRRVGSFTYKYDYWGQGTQVTVSS", "polyreactivity (PSR sort gate)": "low polyreactivity"}, {"sequence": "QVQLVESGGGLVQAGGSLRLSCAASGSIFYKYAMGWYRQARGKERELVAAINRGVSTYYADSVKGRFTISRDNAKNTVYLQLTSLKPEDTAVYYCNADSTELRGYYYWGLGTQVTVSS", "polyreactivity (PSR sort gate)": "low polyreactivity"}, {"sequence": "QVQLVESGGGLVQAGGSLRLSCAASGSIFYKYVMGWYRQAPGKERELVAAISRGGGSTYYADSVKGRFTISRDNAKNSVYLQMNSLKPEDTAVYYCNAVGRPRYGHGFDHWGQGTQETVSS", "polyreactivity (PSR sort gate)": "high polyreactivity"}, {"sequence": "QVQLVESGGGLVQAGGSLRLSCAASGSIFYLNAMGWYRQAPGKERELVATISNGGSTNYADSVKGRFTISRDNAKNTVYLQMNSLKPEDTAVYYCAAASGGTVVGEGDYWGQGTQVTVSS", "polyreactivity (PSR sort gate)": "low polyreactivity"}, {"sequence": "QVQLVESGGGLVQAGGSLRLSCAASGSIFYLNAMGWYRQAPGQERELVASISNGGSTNYADSVKGRFTISRDNAKHTVYLQMNSLKPEVTAVYYCAADYVVSAFDYWGQGTQLTVSS", "polyreactivity (PSR sort gate)": "low polyreactivity"}, {"sequence": "QVQLVESGGGLVQAGGSLRLSCAASGSIFYLYALGWYRQAPGKERELVAAISSSGGRTYYADSVKGRFTISRDNAKNTVYLQMNSLKPEDTAVYYCAARYWAKYSYGYWGQGTQVTVSS", "polyreactivity (PSR sort gate)": "high polyreactivity"}, {"sequence": "QVQLVESGGGLVQAGGSLRLSCAASGSIFYLYAMGWYRQAPGKERELVADITITGGSTYYADSVKGRFTISRDNAKNTVYLQMNSLKPEDTAVYYCAADEFWFTYRYDYWGQGTQVTVSS", "polyreactivity (PSR sort gate)": "high polyreactivity"}, {"sequence": "QVQLVESGGGLVQAGGSLRLSCAASGSIFYLYAMGWYRQAPGKERELVATISLSSGSTYADSVKGRFTISRDNAKNTVYLQMNSLKPDDTAVYYCAKDLSRWGYNEYDYWGQGTQVTLSS", "polyreactivity (PSR sort gate)": "low polyreactivity"}, {"sequence": "QVQLVESGGGLVQAGGSLRLSCAASGSIFYLYTMGWYRQAPGKERELVAAITSGGSTNYADSVKGRFTISRDNAKNTVYLQMNSLKPEDTAVYYCAAEYFDWWVTYDYWGQGTQVTVSS", "polyreactivity (PSR sort gate)": "high polyreactivity"}, {"sequence": "QVQLVESGGGLVQAGGSLRLSCAASGSIFYNNAMGWYRQAPGKERELVAAITIGGSTNYADSVKGRFTISRDNAKNTVYLQMNSLKPEDTAVYYCAAGKPGAYRYGSIVRFDHWGQGTQVTVSS", "polyreactivity (PSR sort gate)": "low polyreactivity"}, {"sequence": "QVQLVESGGGLVQAGGSLRLSCAASGSIFYNNVMGWYRQAPGKERELVAVISGGGSTNYADSVKGRFTISRDNAKNTDYLQMNSLKPEDTAVYYCAARGRYSYGDRYEYWGQGTQVTVSS", "polyreactivity (PSR sort gate)": "low polyreactivity"}, {"sequence": "QVQLVESGGGLVQAGGSLRLSCAASGSIFYPYAMGWYRQAPGKERELVAAISYSGGSTYYADSVKGSFTISRDNAKNTVYLQMNSLKPEDTAVYYCNRRYWRRPYYKYDYWGQGTQVTVSS", "polyreactivity (PSR sort gate)": "high polyreactivity"}, {"sequence": "QVQLVESGGGLVQAGGSLRLSCAASGSIFYPYAMGWYRQAPGKERELVARIRGTGGRTYYADSVKGRFTISRDNAKNTVYLQMNSLKPEDTAVYYCNAQTSGRVGSQYYSYYGSWGQGTQLTVSS", "polyreactivity (PSR sort gate)": "high polyreactivity"}, {"sequence": "QVQLVESGGGLVQAGGSLRLSCAASGSIFYPYAMGWYRQAPGKERELVATINEDGGSTYYADSVKGRFTISRDNAKNTVYLQMNSLKPEDTAVYYCNTDHFEDYHTDFWSDYEYWGQGTQVTVSS", "polyreactivity (PSR sort gate)": "low polyreactivity"}, {"sequence": "QVQLVESGGGLVQAGGSLRLSCAASGSIFYPYAMGWYRQAPGKERELVATISSGVNTNYADSVKGRFTISRDNAKNTVYLQMNSLKPVDTAVYYCAARFRHSFRRGGGYNYDYWGQGTQVTVSS", "polyreactivity (PSR sort gate)": "high polyreactivity"}, {"sequence": "QVQLVESGGGLVQAGGSLRLSCAASGSIFYQYAMGWYRQAPGTERELVAAITWIGSPNYADSVKGRFTISRDNAKNTVYLQMNSLKPEDTAVYYCNTDPYVLQKYDYWGQGTQVTVSS", "polyreactivity (PSR sort gate)": "low polyreactivity"}, {"sequence": "QVQLVESGGGLVQAGGSLRLSCAASGSIFYRITMGWYRQAPGKERELVAAISTNGGSTYYADSVKGRFTISRDNAKNSVYLQMNSLKPEDTAVYYCAADLRRSDYDYWGQGTQVTVSS", "polyreactivity (PSR sort gate)": "high polyreactivity"}, {"sequence": "QVQLVESGGGLVQAGGSLRLSCAASGSIFYRNAMGWSRQPPGKERELVAGITTRGGSTYYADSVKGRFTISRDNAKNTVYLQMNSLKPEDTAVYYCAAVPYSRYSSSRGYWGQGTQVTVSS", "polyreactivity (PSR sort gate)": "high polyreactivity"}, {"sequence": "QVQLVESGGGLVQAGGSLRLSCAASGSIFYRNAMGWYIQAPGKERELVAAISRRGGITYYADSVKGRFTISRDNAKNTVYLQMNSLKPEDTAVYYCYTDTGGMDYWGQGTQVTVSS", "polyreactivity (PSR sort gate)": "high polyreactivity"}, {"sequence": "QVQLVESGGGLVQAGGSLRLSCAASGSIFYRNAMGWYRPAPGKERELVAAISSDGSTNYADSVKGRFTISRDNAKNTVYLQMNSLKPEDTAVYYCAVDRYRYPFDYWGQGTQVTVSS", "polyreactivity (PSR sort gate)": "low polyreactivity"}, {"sequence": "QVQLVESGGGLVQAGGSLRLSCAASGSIFYRNAMGWYRQAPGKERELVATITVNGGRTYYADSVKGRFTISRDNANNTVYLQMNSLKPEDTAVYDCAKDVHRWDPYDYWGQGTQVTVSS", "polyreactivity (PSR sort gate)": "low polyreactivity"}, {"sequence": "QVQLVESGGGLVQAGGSLRLSCAASGSIFYRNTMGWYRQAPGKERELVAGITGNGGRTYYADSVKGRFTISRDNAKNTVYLQMNSQKPEDTAVYYCAAGTWTWYRYYYWGQGTQVTVSS", "polyreactivity (PSR sort gate)": "high polyreactivity"}, {"sequence": "QVQLVESGGGLVQAGGSLRLSCAASGSIFYRYAMGWYRQAPGKERELFATITQSGVSTYYADSVKGRFTISRDNAKNTVFLQRISLKPEDTAVYYCAASYYYTIGPYLRKFDWGQGTQVTVSS", "polyreactivity (PSR sort gate)": "low polyreactivity"}, {"sequence": "QVQLVESGGGLVQAGGSLRLSCAASGSIFYRYAMGWYRQAPGKERELVAAINWSGGSTYYADSVKGGFTISRDNAKNTVYLQMNTLKPEDTAVYYCAARLYWRRYDYWGQGTQVTVSS", "polyreactivity (PSR sort gate)": "high polyreactivity"}, {"sequence": "QVQLVESGGGLVQAGGSLRLSCAASGSIFYRYAMGWYRQAPGKERELVAAIRWSGGSTYYADSVKGRFTISRDNAKNTVYLQMNSLKPEDTAVYYCATEVSSGGYWSWYGYWGQGTQVTVSS", "polyreactivity (PSR sort gate)": "low polyreactivity"}, {"sequence": "QVQLVESGGGLVQAGGSLRLSCAASGSIFYRYAMGWYRQAPGKERELVAAISRSGGRTYYADSVKGRFTISRDNAKNTVYLQMNSLKPEDTAVYYCAAESTVGTDLGGDSWGQGTQVTVSS", "polyreactivity (PSR sort gate)": "high polyreactivity"}, {"sequence": "QVQLVESGGGLVQAGGSLRLSCAASGSIFYRYAMGWYRQAPGKERELVAAISSGSSTHYADSVKGRFTISRDNAKNTVYLQMNSLKPEDTAVYYCAARYRAFTSTRRFDYWGQGTQVTVSS", "polyreactivity (PSR sort gate)": "high polyreactivity"}, {"sequence": "QVQLVESGGGLVQAGGSLRLSCAASGSIFYRYAMGWYRQAPGKERELVAAISSRGGSTNYADSVKGRFTISRDNAKNTVYLQMNSLKPEDTAVYYCAAGWNYLRQFNFNYWGQGTQVTVSS", "polyreactivity (PSR sort gate)": "high polyreactivity"}]}]}
